# Laboratory results: doi:10.1101/2024.12.03.626679, “Structure of the SMYD2-PARP1 Complex Reveals Both Productive and Allosteric Modes of Peptide Binding” (bioRxiv, 2024)
# B1: PARP1 peptide (13-residue synthetic peptide, human PARP1 residues 522-534) (peptide)
# peptide: RMKLTLKGGAAVD
# notes: PARP1, human, residues 522-534, holds the target lysine Lys528; also called Lys528-containing PARP1 peptide; source: synthetic peptide (CPC Scientific)
# Columns and labels:
# SMYD2-L351A/W356A = SMYD2-L351A/W356A (human, UniProt Q9NRG4 1-433, L351A | W356A); test: cell-based or functional assay
# Sequence of SMYD2-L351A/W356A (Q9NRG4 whole entry L351A/W356A, the tested form may be a part): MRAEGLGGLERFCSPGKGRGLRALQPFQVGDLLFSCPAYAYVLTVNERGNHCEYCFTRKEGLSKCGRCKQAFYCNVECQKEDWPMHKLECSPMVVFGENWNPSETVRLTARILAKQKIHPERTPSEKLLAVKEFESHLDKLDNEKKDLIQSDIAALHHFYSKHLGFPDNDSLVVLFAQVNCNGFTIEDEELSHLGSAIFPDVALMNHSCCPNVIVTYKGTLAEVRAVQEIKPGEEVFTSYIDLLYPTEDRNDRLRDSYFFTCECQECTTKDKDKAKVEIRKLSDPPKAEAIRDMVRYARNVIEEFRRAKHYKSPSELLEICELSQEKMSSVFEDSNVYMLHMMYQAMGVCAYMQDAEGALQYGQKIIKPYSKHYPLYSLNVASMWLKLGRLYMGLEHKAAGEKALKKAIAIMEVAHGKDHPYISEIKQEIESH
# [1] = target: T1, Full-length human SMYD2 (residues 1-433), wild type (human, UniProt Q9NRG4 1-433); test: ITC; NanoITC SV, 27°C, 25 mM Tris pH 7.5, 50 mM NaCl; 40 μM SMYD2 in the cell, 631 μM PARP1 peptide in the syringe, 16 injections of 15 μL; one-site, two-site and binding polynomial models; details: both partners purified
# T1 construct: SMYD2, human, full length, residues 1-433; Tag cut off with yeast SUMO Protease 1, native N-terminus; Crystals held AdoHcy; also called SMYD2-WT; wild-type SMYD2; not shown: 6xHis-SUMO, N-terminal, cleaved
# T1 sequence (Q9NRG4 whole entry, the tested form may be a part): as the sequence (Q9NRG4 whole entry L351A/W356A, the tested form may be a part) above, with A351L, A356W counted along it
binder,measurement,setting,value
B1,"KM of steady-state methyltransferase kinetics (MTase-Glo) with the PARP1 peptide as substrate, against wild-type SMYD2",SMYD2-L351A/W356A,4 fold
same,dH1 (binding polynomial),[1],-1 kcal/mol
same,dH2 (binding polynomial),[1],-1.72 kcal/mol
same,stoichiometry N,[1],2
